The target in experiment [1] is T1, Cynomolgus IL-1RAP on normal cynomolgus dermal fibroblasts (cynomolgus monkey, UniProt P59822 21-570 (rhesus entry)).
T1 construct: Endogenous protein on cells; also called Cyno IL-1RAP
T1 sequence: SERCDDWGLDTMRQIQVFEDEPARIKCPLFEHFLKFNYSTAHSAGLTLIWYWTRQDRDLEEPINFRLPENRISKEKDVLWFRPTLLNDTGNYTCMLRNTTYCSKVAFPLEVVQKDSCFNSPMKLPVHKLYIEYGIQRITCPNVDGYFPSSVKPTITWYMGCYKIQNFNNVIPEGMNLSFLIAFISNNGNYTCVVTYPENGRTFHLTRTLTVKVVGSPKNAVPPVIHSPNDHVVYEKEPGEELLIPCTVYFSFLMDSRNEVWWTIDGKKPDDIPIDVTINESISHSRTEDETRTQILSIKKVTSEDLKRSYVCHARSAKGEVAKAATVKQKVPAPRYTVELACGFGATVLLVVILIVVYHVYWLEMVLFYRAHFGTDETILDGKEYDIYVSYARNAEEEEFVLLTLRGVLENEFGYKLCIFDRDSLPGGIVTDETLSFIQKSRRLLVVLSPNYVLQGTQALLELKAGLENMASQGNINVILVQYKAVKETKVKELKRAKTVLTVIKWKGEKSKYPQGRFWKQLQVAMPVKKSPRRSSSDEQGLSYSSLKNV
The experiment is described as follows: flow cytometry on normal cynomolgus fibroblasts, nonlinear sigmoidal regression. Here is the method:
Bound antibodies were detected with a monoclonal anti-human IgG PE-Cyanine7 secondary antibody. The graphs show the nonlinear sigmoidal regression binding curves (Relative Geometric Mean Fluorescence Intensity) for each cell lines. Each data point is a measurement for a given cell line. Multiple independent experiments were performed across several donors (HaCaT and HaCaT IL-1RAP KO: 4 and 3 independent experiments; Human Dermal Fibroblasts: 2 independent experiments—total of 5 donors; Human Neutrophil: 2 experiments—total of 6 donors; Cyno Dermal Fibroblasts: 2 independent experiment—total of 4 donors).
In brief, cells were harvested, counted, and plated at 50,000 cells/well in a 96-well round-bottom plate. The plate was centrifuged at 350 g for 3 minutes and the cells were resuspended in 50 μl of FACS® buffer (PBS (1×)+2.5% FCS+2 mM EDTA+0.05% NaN₃) containing various concentrations (ranging from 50 to 0.00003 μg/ml) of either anti-human IL-1RAP_candidate_1 or Isotype control_5 antibodies. […] The cells were gated based on size on FSC vs SSC and analyzed for PE-Cyanine7-geometric mean (geomean) fluorescence intensity using FLOWJO® software. Finally, relative geomean fluorescence intensity was calculated by subtracting fluorescence of anti-human IL-1RAP_candidate_1 per fluorescence of Isotype control_5. […]
For orientation: In flow cytometry, cells or beads pass a laser one at a time.

In experiment [2] the target is T2, Recombinant human IL-1RAP-ECD(S21-E359)-avi-his protein (human, UniProt Q9NPH3 21-359).
T2 construct: Biotinylated where loaded on streptavidin; also called human IL-1RAP-ECD-Avi-His; recombinant human IL-1RAP-avi-his protein
T2 sequence: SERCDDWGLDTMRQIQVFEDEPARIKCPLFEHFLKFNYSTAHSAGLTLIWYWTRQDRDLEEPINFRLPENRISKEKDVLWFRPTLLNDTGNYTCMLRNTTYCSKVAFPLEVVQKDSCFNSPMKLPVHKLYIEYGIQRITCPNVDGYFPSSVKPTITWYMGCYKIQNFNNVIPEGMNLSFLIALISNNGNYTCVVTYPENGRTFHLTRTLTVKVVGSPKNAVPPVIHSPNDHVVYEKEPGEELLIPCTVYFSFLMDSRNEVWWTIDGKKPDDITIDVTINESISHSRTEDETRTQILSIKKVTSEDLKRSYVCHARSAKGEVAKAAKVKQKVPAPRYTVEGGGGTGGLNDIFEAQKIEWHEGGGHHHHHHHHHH
Briefly: SPR, IgG1 LALA captured by anti-human Fc, human IL-1RAP-avi-his as analyte, 1:1 fit. Here is the method: Surface plasmon resonance (SPR) was used to measure the binding affinities of the human IgG1 LALA molecules for human and cynomolgus monkey IL-1RAP. Affinities were measured on a BIACORE™ T200 instrument (BIACORE™, GE […]®) at 25° C. and analyzed with the BIACORE™ T200 Evaluation Software (v3.1). Measurements were performed on Series S CM5 sensor chips (BIACORE™ T200, BIACORE™, GE […]®, catalog no. BR100530) coupled with anti-human IgG Fc (BIACORE™, GE […]®, catalog no. BR100839) using a commercial amine coupling kit (BIACORE™, GE […]®, catalog no. BR100050). SPR measurements were performed with recombinant human IL-1RAP-avi-his protein produced in house (SEQ ID NO. 1) or recombinant cynomolgus monkey IL-1RAP-avi-his protein produced in house (SEQ ID NO. 2). The affinities to human and cynomolgus monkey IL-1RAP were assessed by immobilizing anti-IL-1RAP IgG1 LALA molecules and using IL-1RAP proteins as analyte. Around 150 RU of human IgG1 LALA were captured on fc2 of a Series S CM5 sensor chip coupled with anti-human IgG Fc. Recombinant human IL-1RAP-avi-his protein or recombinant cynomolgus monkey IL-1RAP-avi-his protein was injected in multi cycle kinetic at different concentrations ranging from 0.14 to 100 nM, in HBS-EP+ buffer (BIACORE™, GE […]®, catalog no. BR100669) at a flow rate of 30 μl/min for 3 min on fc1 and fc2 (fc1 being used as reference). Dissociation was monitored for 12 min. After each cycle, the surface was regenerated with 60 μl of regeneration solution provided with anti-human IgG Fc capture kit (BIACORE™, GE […]®, catalog no. BR100839). Experimental data were processed using the 1:1 Langmuir kinetic fitting model. Measurements included zero-concentration samples for referencing. Chi², U- and residual values were used to evaluate the quality of a fit between the experimental data and individual binding models.
In general terms: In SPR one partner is held on a chip, and binding of the other changes the refractive index at the surface.

One may read the Kd as the constant that tells how readily two partners part at equilibrium. The koff is the first-order rate constant of dissociation. The kon is the second-order rate constant of association.

B1: Anti-IL-1RAP-C8-RecC-ES-IgG1LALA (antibody, V domains shown)
VH: QVQLVQSGAEVKKPGSSVKVSCKASGSPAEPYAIQWVRQAPGQGLEWMGYIIPSLGGYDYAQKFQGRVTITADESTSTAYMELSSLRSEDTAVYYCARGQTLYESGRQFDIWGQGTLVTVSS
VL: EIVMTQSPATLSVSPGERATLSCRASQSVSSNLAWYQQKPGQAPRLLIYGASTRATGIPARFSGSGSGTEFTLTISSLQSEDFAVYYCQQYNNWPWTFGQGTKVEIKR
notes: also called ISB 880-C8-recC-ES
In experiment [1], B1 showed a Kd of 1.55 nM. Further, in experiment [2], the Kd is 0.251 nM, the koff was found to be 0.000172 s⁻¹ and the kon is 693000 M⁻¹ s⁻¹.

(Values after patent publication US20240327530A1 (ICHNOS SCIENCES, published 2024).)
